Results: US20080027145A1, “Therapeutic Molecules and Methods for Generating and/or Selecting Same” (priority 2004, published 2008)

How the values were obtained:
[1] = target: mouse Mcl-1 ΔN151 ΔC23 (mouse) (UniProt P97287); assay: Biacore solution competition against immobilised mouse wtBimBH3
mouse A1 ΔC20 (mouse) = mouse A1 ΔC20 (mouse) (UniProt Q07440); assay: as above
[2] = target: m ^wtBimBH3 (83-108) (mouse); assay: SPR (Biacore 3000), protein over immobilised m wtBimBH3
[3] = target: mouse Mcl-1 ΔN151 ΔC23 (mouse) (UniProt P97287); assay: from the solution competition affinities

mouse A1 ΔC20 (mouse), sequence (Q07440 other isoform, or with tags, fused parts or gaps mutant): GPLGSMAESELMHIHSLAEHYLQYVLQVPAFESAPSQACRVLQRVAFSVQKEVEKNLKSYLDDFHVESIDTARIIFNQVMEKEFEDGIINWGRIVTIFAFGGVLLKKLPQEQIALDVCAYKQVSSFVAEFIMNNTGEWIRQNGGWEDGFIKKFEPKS
m ^wtBimBH3 (83-108) (mouse), sequence (peptide, as listed by the source limits assumed): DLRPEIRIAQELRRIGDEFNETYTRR
mouse Mcl-1 ΔN151 ΔC23 (mouse), sequence (P97287 other isoform, or with tags, fused parts or gaps mutant): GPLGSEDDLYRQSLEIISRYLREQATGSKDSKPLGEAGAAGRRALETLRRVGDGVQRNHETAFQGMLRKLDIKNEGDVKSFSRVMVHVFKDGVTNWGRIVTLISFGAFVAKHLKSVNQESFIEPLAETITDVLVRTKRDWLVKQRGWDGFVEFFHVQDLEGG

| Substance | IC50 [1] [nM] | IC50 (mouse A1 ΔC20 (mouse)) [nM] | Kd [2] [nM] | koff [2] [s⁻¹] | kon [2] [M⁻¹ s⁻¹] | fold weaker binding than to Bcl-xL [3] [fold] |
| --- | --- | --- | --- | --- | --- | --- |
| Puma (130-155) BH3 peptide, human | 5 | 5.7 |  |  |  |  |
| Bik (51-75) BH3 peptide, human | 1700 | 58 |  |  |  | 40 |
| Hrk (26-51) BH3 peptide, human | 370 | 46 |  |  |  |  |

Now from value to substance:

| IC50 [1] [nM] | IC50 (mouse A1 ΔC20 (mouse)) [nM] | Kd [2] [nM] | koff [2] [s⁻¹] | kon [2] [M⁻¹ s⁻¹] | fold weaker binding than to Bcl-xL [3] [fold] | Substance |
| --- | --- | --- | --- | --- | --- | --- |
|  |  | 0.2 | 0.00026 | 1.3e+06 |  | mouse Mcl-1 ΔN151 ΔC23 (from UniProt P97287 152-308) |
|  |  | 0.5 | 0.00014 | 290000 |  | mouse A1 ΔC20 (from UniProt Q07440 1-152) |
